Target: the molecule itself
Assay: SEC; Superdex 200 10/300 GL in crosslinking buffer (0.1 M potassium phosphate, 5 mM EDTA, 0.150 M NaCl, pH 6.5-7.0), 0.75 ml/min; mutant reduced with TCEP before loading; fractions followed by A280 and catalytic activity; starting solution of low purity

B1: L-asparaginase mutant A38C-T263C (enzyme, E. coli, UniProt P00805 23-348, looked up)
chain: LPNITILATGGTIAGGGDSATKSNYTVGKVGVENLVNCVPQLKDIANVKGEQVVNIGSQDMNDNVWLTLAKKINTDCDKTDGFVITHGTDTMEETAYFLDLTVKCDKPVVMVGAMRPSTSMSADGPFNLYNAVVTAADKASANRGVLVVMNDTVLDGRDVTKTNTTDVATFKSVNYGPLGYIHNGKIDYQRTPARKHTSDTPFDVSKLNELPKVGIVYNYANASDLPAKALVDAGYDGIVSAGVGNGNLYKSVFDTLATAAKCGTAVVRSSRVPTGATTQDAEVDDAKYGFVASGTLNPQKARVLLQLALTQTKDPQQIQQIFNQY
notes: L-asparaginase II of E. coli (ansB), expressed with its natural signal peptide, which was excised; In the cross-linking experiments the two introduced cysteines were reacted with Bi-MAL-PEG (2000 or 5000 g/mol) after reduction with TCEP; also called mutant L-asparaginase; precursor mutant
B1: binds.
